This is an account of results in patent CN101007849A.

The target of experiment [1] is 人TPO受体(MPL)，表达于Ba/F3细胞 (human) (UniProt P40238). As to the kind of experiment: cell-based or functional assay.
The target is the same in experiment [2]. Kind of experiment: cell-based or functional assay. The source holds these as a separate data set.

As for “人TPO(R&D Systems) (from UniProt P40225 22-353) (ligand)”, the ED50，BaF/mpl细胞增殖(WST-8) in experiment [1] was found to be 0.027 nM.

B1: 抗体12B5(IgG) (antibody, from another filing)
scFv: QVQLVQSGGGLVRPGGSLSLSCAVSGITLRTYGMHWVRQAPGKGLEWVAGISFDGRSEYYADSVQGRFTISRDSSKNTLYLQMNSLRAEDTAVYYCARGAHYGFDIWGQGTMVTVSSGGGGTGGGGSGGGGSDIQMTQSPSTLSASIGDRVTITCRASEGIYHWLAWYQQKPGKAPKLLIYKASSLASGAPSRFSGSGSGTDFTLTISSLQPDDFATYYCQQYSNYPLTFGGGTKLEIK
B1 had an ED50，TPO样激动剂活性(BaF/mpl细胞增殖，WST-8) in experiment [2] of 29 nM.
